Test results as given in a protein production outcome set (Wang et al. 2014).

Assay: label from the status in PepcDB records

Sequence	protein production
MSGPEAEQQSVVLYDIEDKPPLGKAIPLGIQHVLAMFLGNVAPPLILAGAVGSVTGETTFLVQMALIVAGIATIVQAYPVGPVGARLPVVMGTSFAFLGPLIGIGNQFGIAAVFGASLLAAPVEVIMGVSFDRFRRFFPPLVTGIVVMLIGLTLIPTGMNYAAGASAGPSAEGYGSFVNLGLAGLVLIVTVGLNQFFEGFLRVISVFVGIIVGYLAALALGVVDLSAVAAAGWVTVPVPLKYGLAFEPSAVVTVAFLYIITGMETIGDISGTVSATGRNATREEIRGGLVADGVMSVFGAVFNALPNTSFSQNVGLVNFTGVASRYVAGIGGVVLLALGFIPKVGAVVSAMPDAVLGGGALILFAMIFSSGARLITQNVELDHRNSTILAMSMALGLGVAFRPEILQNFPSEVQTLFGSALVTGGMAALILNIVFPGGSVGTGPTEYTAGLEPDPVETGAGAPPVDDD	failed
MSGSLRDSAIDHFNKTISLMQKRQNKEALEELEKAEEAAKQAKANDILIHTVNLRGQLMLTLGALDEVLRICGFASNFFADILLKDPENEFFQQSFQMNLNNLGTTGNFYHNTGRFPQAKKAYETGLGITLKLLQSSPQDDFLQNYTGTTLNNLGNLLSDMGRIEDAKNRYEKALEMREKLLEKDPENVAYQSYVGGTLNNLGNLLKNMGRIEDAKNRYEKALEMREKLLEKDPENVAYQSYVAMTLNNLGNLLKNMGRIEDAKNKYEKALEMREKLLEKDPENVAYQSDVAMTLNNLGTLLSDLGKIEDAKNRYEKALEIYEKLLENDPENVAYQSYVAMALNNLGNLLKNMGRIEDAKNRYEKALEMREKLLENDPENVAYQSDVAMTLNNLGTLLSDMGRIEDAKNRYEKALEIYEKLLEKDPENIAYQSDIGGTLNNLGTLLSDMGRIEDAKNRYEKALEIYEKLLEKDPENIAYQSEVGGTLNNLGTLLSDMGRIEDAKNRYEKALEIYEKLLEKDPENIAYQSEVGTMLNNLGNLLSDMGRIEDAKNRYKKALEIYEKLLEKDPENIAYQSYVGGTLNNLGNLLSDMGRIEDAKNRYKKALEIYEKLLEKDPENVAYQSYVGTMLNNLGTLLSDMGRIEDAKNRYKKALEIYEKLLEKDPENVAYQSYVGGTLNNLGNLLSDMGRIEDAKNRYKKALGIYEKLLEKDPGNLAYHSEVNTIQCKVKKVKGSGRC	failed
MSGTGEVRGMRAARIAAGAVIPGELALAVCLAAGVRPPVWATAAAEAVALAVLMLEAWVLRSLYASRRAQGLEPPAALRAAVRAVVPARVRRLLVHELRAAASLGRWAARRKHGVRPGDHVAGYTGPQTAMMYGLIFVSVIETVALAVLIPWPVVHRVLLVLDVYGVLMMLGLHAACVTRPHVARPDGSLRIRYGALFDLAVPADAVASVRVDRCYPQGRLVTLSEKGVLDLIVAGQTTVTLELTRPLVFTRPLGGRGEARTIRFHADDPRALVGALRRPALT	failed
MSGVILGRYWGGLSQLIYVIIGAAGVPWFADMSGGPEVLLGATGGYLLGFILAALLLGHFVDRHIRARKFTPMLGLMTIANFGLIYIPGLVVLGLWSLKTQGTLPGPWELLVMGLLPFIPGDILKITGAAALTRAITPKEPYGEEIDIQKAEGWRVP	failed
MSGVTSEPIAMDATRFQHTPYYCEENVYLLCKTLCENGVAEATCSDLFVVFISNEKKQVPLWHQKASTRADGVVLWDYHVICVQRKKESDSEPLVWDLDSTLPFPSPLASYVTETIQPSFQLFAEYQRFFRIVHAPLFFKHFASDRRHMKEPDGSWTAQPPPYEPIVAQDGILHNLSEYIAMSGADTLSSLDPETVTAAISQKLGVVVSHTQLQDLFTKLP	failed
MSHAHKKHKENAPKSLNFYVITISTSRYEKLLKKEPIVDESGDIIKQLLIENGHKIIGYSLVPDDKIKILKAFTDALSIDEVDVIISTGGTGYSPTDITVETIRKLFDREIEGFSDVFRLVSFNDPEVKAAAYLTKASAGIIGKKIVYLLPGSPDAVKLALKELILPEVGHLVYLVRS	not failed
MSHKCFKDESFETRISCPLCQKELIMTWQRDNIPYFGEIMYVSAKCPCSFRFADTMILSSKEPMRYELSVESPEDLDARVIRSTSGTIRIPEMGIVVEPGTVSDSYITNIEGVLQRVQNVLMTASRWVREDEEKFARSQELLCMLNEVIEGRRAITVIIEDPLGNSAIISKKAVASKLSKEEAEKLNTGMIVFDVDKSELAHDISDNVKPLGGDLEHHHHHH	not failed
MSHLRIPKNWTIQRSTPFFTKDNVPEALLTHHNTAVDVFGQICVMEGVVTYYGFANSEATEPEIKVVINAGQFATSPPQYWHRIELSDDAQFNINFWSDQDKSGKKMFNTKLEHHHHHH	not failed
MSHVSDYRPCFLIPCYNHGSTIADVVASLSSFDLPVLVVDDGSNEDTKQALSALSEQGLIKLISLSENQGKGGAVMAGLHQAHQLGFTHTIQIDADGQHDLEALPKLLSASETKPDNLISGQPIYDESVPKARLYGRYATHIWVWIETLSLSIKDSMCGFRAYPVAKTVAVLNKYNIGKRMDFDIEILVRMYWEGVDIDFVPTRVIYPEGGISHFDALWDNVKISWMHTRLFFGMLPRIPSLLARKRRHTDDSNAHWSKRKEQGTILGIKTLLAVYRLFGRKAFDLILKLVMRYYHFTGKSAREASEIYLQNLQRYAAQQNIALPKQLDSYHHLLSFGRTMLDKLAAWQGDFNVDNLTIHGQHHFEEMAQKKQGVLILGSHLGNIELCRALGRRHSHVKINALVFTQHAEQFNAVMKAVNPNSELNLIQVSSMGPDTAILLQQKIEQGEWVVIVGDRTSTSKENRVVWADFLGKPAPFPQGPFMLASVLKAPVYLLFGLRDDEANTPHFNVYFEHFSDQITLPRKERQQALEHVVQQYAHRLEHHTLQAPLQWYNFFNFWTLSNQPHDKQQ	failed
MSIEERLEALEKEIQKMKDIEEIKKLKGQYFRCLDGKFWDELETTLSPNIVTSYSNGKLVFHGPKEVTDYFKKAMPREEISMHMGHTPEITIDSETTATGRWYLEDKLIFTEESKYAGSGVNGGAFYTDKYEKVDGKWYILETGYLRVYEEHFMRDPKIKITMNMHKTK	not failed
MSIFANLKDRMKAVFQPRSDILASQDAESTPGSRDALFAIEELSRAVRNDPDAVEIYLALGNLYRLRGDIDRAVQIRSSLIVRPGLDNRFRARAYLELGRDYRRGGFVDRALQAFDEAQRLGAERDAIILELAHLHADSGSFDLAAEQFGRVGHKPAQAHYLVRHAEDLCGQGEFAEAVKTLTRAVKVYPGSIEAWTTRIAMHIRSGEWRKAKSMLREAMQSVSPDRRFLVFDGILAITPPENAPDSVQQFEQNRCECVLPVISEQEPELLLHYYGALFLLRCGEREQAGNWLAKAMVLRPDFWAARLELLGISMDRQQLSPVFKGQLEYFVSQARHVKRFVCQNCGLRREQAFYLCPRCRSWHSATFRLSLQD	failed
MSIIIPAYNEEENIKRAIKAALSQDYPVSEVIVVDDGSEDGTYERAKEIKDHRLKVLKIDHRGKAGAINEGLKIAKGSVIVTTDADSFMSKDAVRRLVERFYSDDVVAVGGQIRVIVESFMTLVQDIEHLRIAMYRRGKELENLSLAPGPLSAFRRDVLEKIGGIQRSIVEDYATTKIVKKYGRVVYAPKAKLYTRMPITLRDLWRQRKRWFLGDLQHHNLNDLLNLLLGDVIALLDVILPFIFLLEGSYLPLLAFVMFEVITMVIAVIWEGGSLIEALLFPVVLWFLALFYLSLHLYGYAVYGLKSLLRFTRS	failed
MSINISELLQPITEQSPCGEDYSFSNEFHLIKKARTQDDVLLDQGDWVTELKQADWETVTSTSSNLLKTKTKDIRLLTWLSEGWANLYGFEGIYQGIELSHRLLDQFWNDIHPVVEDDDLDQRIALLQGLINQLPLLIKKTPLINTSPYYHLLNYENFLHHQNIRRKQSDEYEQLDGPSEIELFEQALFNTSKSFQYQNYQMFKHVVSQWQQLKDVLDRLMGVDAPSFAAIDSSLQDIDVNLRKIYKAEAFDTNPVATSSATASSHASETLSTEPMPTSNVNVNQPSFQPQTQNHIQNREQAIRVLQDISDYFQANEPHSPVSYMLQKTIKWSQMPLHEWLAQVIKDEHPLQLVQEALGVQPKNEYE	failed
MSINLSKGDKIDLKKSNPGLSNILVGLGWDPVQQSGGGFFKSLFGGGQADIDCDASVFMLNQEGKLSGIKDLIYFGNLKSACKSVLHTGDNLTGEGTGDDEQILVNLDKVPSNIHKLLFVVNIYNCVDRKQHFGMIENAYIRVEDQGNKKEIAKYNLSDNYSEKTTLIVGAIYRKDGSWQFKAIGEGTKDAGLKEVMQNLDRIECAYGI	failed
MSISDNSRDQLGELPAGRPLQSDFDNDLDYPRLGSVTFRRGTLTENQQTMWDEKWPELGRVLEDELIDVDAWFGREGAKTIVEIGSGTGTSTAAMAPLEADTNIVAVELYKPGLAKLMGSVVRGEIDNVRMVRGDGIEVLNRMFADGSLDGIRVYFPDPWPKARHNKRRIIQSGPLNLFAKKLKPGGVLHVATDHADYAEWINELVEVEPLLEYKGWPWEECPQLTDRQVITKFEGKGLEKDHVINEYLWQKVQN	failed
MSITLITAAPGAGKTIFAVWNIIKPAVEADRVVYTAGIPELKLPAISLSYSQVKRWADRELVEVENPSGIPIPDDEKPSRLQNITEGALIVIDEVQYLWPASGSREPGEDIKYLTKHRHHGLEFVLITQAPQLIHKNVLAVVDKHIHMLSDWHGRKRYEWPEYCATVRATSSKLKAVSQRYELPKEAYGLYRSASMHI	failed
MSIWSPLLFNAEGKKQGYDCRYLHKLTDQGNKLSDSGLPVIFTLAHLCAMAGVSFSLIHSCVSRKYDPYRSFTIKKRSGGYRQIVVPEPELMHLQRWINEFILKRAKVHSCAAAYISGSDIKMNASKHLGANWLIKLDIQRFFESISELQVYYIFHRLGYPKLLSFEMARICTRVDTQSNRHFRPRWNNRIHHFEILEYCDSRVGYLPQGAPTSPSLSNLTCRKLDKEIYDLSCRSDCRYTRYADDFAFSFIDLDREKASNFVNQVSRIISSYGFRKNARKTKIIPPGSKKIITGLVLGNGKVHLQKELKDYIRQNIYFATKYGVDEHCKKRGFVSIDGFYNHLEGIVNFALFIEPDFGEKAFEEFRAIKWPSLIVGLHA	failed
MSKARKTAASSGEPDFWRVARDWLHHWLPKVRGSSPKTVEAYRIGLESYVRWLETTEGTQRSHIGFGHFDRARLGRWVEWMRTERGYSDRTIMLRMTTMRVFLDHAGLEHPALTALGNDAAGIRVKPPARKPVDHLGEEHTKALLTAWGTGDAKSRRNRMLLILMYDTAARIGELAALTIADVGMDKPARVTLTGKRGKSRVVPLGERTRTHLAAYLEEFHPGPSMRDGDRPLFHSTRNGAIQPLSVDRIDEILKTAAARARRGTCPSMPERVHCHLIRRTRAMDLYQQGVPLPLIMQLLGHESMSTTSAFYAFATLDMMRKAVDAANPGPDPSKETWLSEQRLRQLHTLK	failed
MSKELTAKKRAALNRLKTVRGHLDGIVRMLESDAYCVDVMKQISAVQSSLERANRVMLHNHLETCFSTAVLDGHGQAAIEELIDAVKFTPALTGPHARLGGAAVGESATEEPMPDASNM	not failed
MSKFRSCSWKCSDMGKSLCGAGGLVWTPPHPLLRKALSHRGRGVKDTNFVGMTTRAVRKGTLRARALRRTQTVEEKTLWLALRNRFLNVKFRRQWPMGGYVVDFVCFEAKLIVELDGSQHAEEAARDYDAVRTEFLEAGGFTVLRFWNNEVRKNLEGVLLEIQKRLP	failed
MSKGKYIHFDTLVSAKTGDIVAIQDILNQFRGYIISRSLRTAYRSDGSLYQYIDTDVQHKMETDLIEAIYKFEIRLEHHHHHH	failed
